The nature of the series: soluble on expression in E. coli; label from the status in PepcDB or PDB records.
As to “MSLHDYCLPCPTSLSGIAEVNPMSKPLVRWPINPLRTAVIVVDMQKVFCEPTGALYVKSTADIVQPIQKLLQAARAAQVMVIYLRHIVRGDGSDTGRMRDLYPNVDQILARHDPDVEVIEALAPQSDDVIVDKLFYSGFHNTDLDTVLRARDVDTIIVCGTVTNVCCETTIRDGVHREYKVIALSDANAAMDYPDVGFGAVSAADVQRISLTTIAYEFGEVTTTAEVIRRIESAYPHGREGHHHHHH”, the “soluble on expression in E. coli” value is on record as “soluble”.

Regarding “MSLHLNVAQQLYNAEITAGSLLLKESRAIAQLLLQSADETAWRQAIAIDNILQKTSPASAKRMSSLIRKRLELMPRELWSMIADGTTEVAIQSLMAAAIKHSRLLGDFMLKVLQRHYREFNPKILSREWDSFLAECAHIDPAVASWSQSTRKKVGQVAYRILSEAGYLDNTRSLKLQPVLIAPEVSKFLNSHDEKYILKCMEIAHEEGHHHHHH”, the “soluble on expression in E. coli” value was “soluble”.

With “MSLHPADFIEKPPRFPVVDGHVDLVYDLMRRHPGIPFEQVADGQVTAQSLKKGGVWVLVAALYCADSHNGPASAAREMRRLHDYACRYLEWFALLRSPGEMAAALGGSGPPGIVFLVENADALLELDLDEVRRWGVRAVGLTHAGRNRLADGNGVTDPKGLTAAGKSLVRSIAGAGLILDVAHLAEPGFREVASLVTGPLISSHTGLRSFCDRPRNLSDPQVAEIARRGGVVGISAAPEMLVPGGTATLDDLFRQVDHVVQRHGPEAVGIGSDFGGFDDTAKGAEDHGGLPLLAERLLGAGYPAGAVGLIMGGNWCRIYGGIEGHHHHHH”, the “soluble on expression in E. coli” value was “soluble”.

For the sequence “MSLHVGAGKSFGTAEANENERRWNDDKIDRKNQDPTNHYDRTRMKLNFEIGPDGKIHPLGYQEKSLEVRLQERLDELGWKPFKADSKIQPNCCAKFVFGGNHDRTLEMAFGNQSVNLEKGADNSHLHRCEEIENWAKDVYDWCVQIYGQENIVGFQVHLDESSPHIHALVVPVGIRPKSGRKCVMWSAKFGKDRYEYGQILKEMHTFLYEDVGSKYGLERGDSIEGRNVHHLHKRDYIRKLTKEAKQAEKAVKGLQSMMRNLESKIFSYRLQLEETEKELASGKITLDRYEAQKADIQKLIAEYQTKLEDKTDKLHAKEQELERLTADATKARSVVQPFRNHKVDFMPPQITEKVPLFGTDKWVERQNQRIAKQFTEIVRKIESLYRNDAARQVEAAQRNVLADYGELYQLRRENKSLSDTNESLESELNTLLDQLAIPSARNLIFAVADALIGGQPVPVSSGGGGSTSDLPWDGRRSDEEEEAYRRRCLMFAIVTVCKQQTKSRREGHHHHHH”, the “soluble on expression in E. coli” value is listed as “soluble”.

Take “MSLHWLFGDQLGPHFLTPGEEGPGPETPLLMIEARSVFRRRRFHRAKAHLVLSAMRHRAAEPGDRVTYVRADTYRQGLARTARGRPVGVHHPTSHAALRLVRALPQVTVGPARGFLVPMTGFAAWAEGHGGKRLRQEDFYRWVRRGHGLLMDGEQPAAGRWNLDHDNREPPPREAASLQVGRPYRPREDDIDEEVRHDLDRWERDGDVSFVGRDGPRLFEGHHHHHH”: the “soluble on expression in E. coli” value is listed as “soluble”.

Turning to “MSLIDILVVDDDVAVCAALRLVLKRAGYNPVIANSPDEALSIMRNPDGGCKPAVILMDMNFSLSTSGREGLELLEKMQIFTSCPVILMTAWASIPLAVEGMRLGAFDFIGKPWDNDRLLRTIDTALHLAAPSAVANPSEQSDRDTARQPKATVQENDPCAHIIGRSDAICKIKERIRRIAPTHASVLITGESGTGKELIAEALHRGSKRASAPFVKVNLGGIPESLFESELFGHKKGAFTNAFSDRKGRFELADGGTIFLDEIGELPVGNQVKLLRVLQEQTFEPLGESVSHRVDIRVVSATNASLERMVAEGRFREDLYYRINLIHLHLPPLRERQEDIQLLVEAFSEAFAQSNGLPHAVWSAEAMRRICAMPLPGNVRELKNVVERTLLLSGSREISARDVADEGHHHHHH”, the “soluble on expression in E. coli” value is on record as “soluble”.

Regarding “MSLIDYQEVLSRYRPTQEEENKLKIISDDIIRKINSICRSRGLRAEAVIVGSYAKGTNLRDGDLDIFIAFDRDYPEEIINTEGLHIGHAVIPNGREKYAEHPYVSGEIGGVKIDVVPCYKMSFGDKKISAVDRTLLHTEYVNGHLDEKGRDEVRLLKIFTKSIGVYGAEARTFGFSGYLCELLVIRFGSFENVIRYFSKAKGRVLIDLDERFRDPMVLIDPVDPDRNVASPVSLESLSRMKIASKMFLSSPDEGFFQIEHNGKNVQYHDRGTCIMIYSLPKPDLTDDVIYPQVYRFRSVLQKIMESHEIRVISSEIDVSDRIYVLIETPACAEERIRVHTGPPVDTDNAVDFVNSWKARDRSRGPYIVADRLYVDVFTGQRSIEDIVRQEIFNYSIGKNLDRFKKSMEIMKFNVGMKSLPVLDKFFGADVFRKEGHHHHHH”, the “soluble on expression in E. coli” value is reported as “soluble”.

Take “MSLIGFLSDRQGFEKQYHDIDLSSFGIREGISEIIASTGFEHPNAAPIGIVMKGERPFVRLFKGSHTWENVLKEKCLASNVVYDPILFVRSTFSDLVPSEFEYVDAGEFKFPVLKEAIAWVVFECINLRNTDQSLVADLVPLNAGFNERNIKELPVPNRGFNAVLEATVHATRYQLTGEEKYLELIRHYESLASKCGGDAEKKAMKLIYEALGLEGHHHHHH”: the “soluble on expression in E. coli” value is given as “soluble”.

As for “MSLIIDVLQHVPHEGPGLIANWARENQHQLKIHTLFEENEHVPKDSDFLIVLGGPMGINDTAEFPWLKDERKLIKRLSEQHKPVFGVCLGAQQIAATFGSEITVNKVKEVGWFPVKRTSDKLSFFPESLNVFHWHQDTFALPAGATRLFASEGCLNQAFLYGENIIGLQFHFEMEKAGIETILQIDEAFITPGKYVQSVEVMREKDVPEDNKQMLEAILDYLINPKTIEGHHHHHH”, the “soluble on expression in E. coli” value was “soluble”.

For “MSLIILTRDDEPRIFTPDSDAASPALHSTSPLPDPASASPLHREEKILPKVCNIVSCLSFSLPASPTDSGLASPTIITREGQQFWAKCLIWKYQLYLHGLHKKSDGRRDKQISASPST”, the “soluble on expression in E. coli” value is “soluble”.

For the sequence “MSLIIQVSPAGSMDLLSQLEVERLKKTASSDLYQLYRNCSLAVLNSGSHTDNSKELLDKYKNFDITVMRRERGIKLELANPPEHAFVDGQIIKGIQEHLFSVLRDIVYVNMHLADSQRLNLTNATHITNLVFGILRNAGALIPGATPNLVVCWGGHSINEVEYQYTREVGHELGLRELNICTGCGPGAMEGPMKGAAVGHAKQRYSEYRYLGLTEPSIIAAEPPNPIVNELVIMPDIEKRLEAFVRMAHGIIIFPGGPGTAEELLYILGIMMHPENADQPMPIVLTGPKQSEAYFRSLDKFITDTLGEAARKHYSIAIDNPAEAARIMSNAMPLVRQHRKDKEDAYSFNWSLKIEPEFQLPFEPNHESMANLDLHLNQRPEVLAANLRRAFSGVVAGNVKAEGIREIERHGPFEMHGDPVLMKKMDQLLNDFVAQNRMKLPGGSAYEPCYKIVTEGHHHHHH”, the “soluble on expression in E. coli” value is on record as “soluble”.

As to “MSLIKFNIAQWRAWAPGLESVDAWQAWSRQPALPENSDAAPDVSFLPAMQRRRLSRLARMAFSVGWPLAEGLEQLPLVFISRHGETPRTFEILSDLAAEQPLSPTQFSLSVHNAVIGLWSIMRGETSEMTALAAAGDGLEHGLLEAATLLADGAPHVLLVITEEQPPEAYASWIDDVPFPYALGLLLTPGDDWQLSLGSHDGQTPRAQWPHALNLLRTLLGAQTFCQHAWMNRVWTWQRNHEGHHHHHH”, the “soluble on expression in E. coli” value is given as “soluble”.

“MSLILKEGEVVFEVPDKLTVTKKDEVFYNPRMKTCRDISIAVIQAFLNLYHKRDKFYIADALAGSGIRGLRYAKELEFNGELKVFLNDINPKAYEKIINNAKLNEIENIDVFNEDANTFLSKHFRFFNVVDIDPFGSPAPYVEQAIRALVTRNGLLCLTATDTAALCGRSKKSCLRKYLAYPLFGRDCHEFALRVLVGYVMRMATKYELALKPVFCHATDHYVRVYLVTDRGAKRADKVFEMLGYVKDVNGIKIIKKFEEGYEKGFAGPLYIGNLYDKALVEEALKIAEKREFSERVLKILNAIKGESAINQVGCYDTHQIGKMLKISVPPMQDIINKLKEMGFNAVVTHYNPKGIKTDATLKNVIEAIYQCTKIREGHHHHHH”: the “soluble on expression in E. coli” value was “soluble”.

For “MSLILVKDAIITGKKQDLLVEGNIIKKIGNISISEVSKDETEIIDGKNCVLIPGLINTHTHVPMSLFRGVADDIPLMEWLSGHIWPMESKLNEKIVYAGTLLGTIEMIKSGTTAFNDMYFFLDSIIKAVDETGIRSTIAYGMIDLFDEEKREKELKTAKESLEMIKNLNNSRITGALGPHAPYTCSKEILESTNALAREYNVPIHIHMNETLDEINQVVEKTGMRPFEYLNSFGFFDNVNTICAHCVHLSASEIQIMKEKNIFAAHNPVSNLKLASGVSPVLKLLENNIPVTLGTDGCGSNNNMNLFEEIKAAALIHKGVNLNPVAVIAKDAFDFGTKNGAKALNINSGEIKEGKLADFVLINMKKPYLTPKENIESHLVYSFNGVVDKVVIDGKLVLNDGKMVNIDEEKVYEIAEEAYFELANEGHHHHHH”, the “soluble on expression in E. coli” value is “not soluble”.

As for “MSLIMTTFIQLHLLTAYAPANLNRDESGRPKTAFMGGVERLRVSSQSLKRAWRVSETFEAAMDGFMGKRTRRIGVDYVYRPMKDAGIEEKIAKSSSELIAKQFGKLKSDKDAKPEKNLEIEQIVHVSNHEISLIKQLVDTLIADKREPNDEEVKLLRKEQRSVDMALFDRMLASSPEFNVEAACQVSHALGVSAVTVESDFFTAVDDLNNKEEDAGSGHMGEQGFASALFYTYVCISRDLLVENLGGNEELAKRTIAALTETALTVSPTGKQNSFASRAYATYALAEVGQKQPRSLAAAFFQPVRDTDQIPAAITRLKQQRASFDSVYGNCADDYRELNVQEGTGSLAELLAFVSQEGHHHHHH”, the “soluble on expression in E. coli” value is “soluble”.

Turning to “MSLIRIDFSQLHQAREDAAAAMPSIAGKKILMGFWHNWPAGAADGYQQGSFANIALEDVPSEYNVVAVAFMKGRGIPTFQPYNLSDAEFRRQVGVLNAQGRAVLISLGGADAHIELHAGQEQALAAEIVRLVETYGFDGLDIDLEQSAIDLADNQRVLPAALKLVREHYAGQGKHFIVSMAPEFPYLHKNGKYVPYLQALEGVYDFIAPQYYNQGGDGLWVQEANGGKGAWIAQNNDAMKEDFLYYLTESLATGSRDFVRIPAQRLAIGLPSNVDAAATGYVIDPAAVSNAFRRLEAAGHAIKGLMTWSVNWDDGLNKRGERYNWEFRKRYASLIHDGEGGDQRPAAPQGLRLLERGETSLVLAWNASSGQRPIDYYSLYRDGAMVGQSAALGSTDSGLTADTRYSYFVTATDTQGNQSLPSEGLEVSTSGGAVDPQFPQWRENQAYRVDDGVTYEGLRYLCLQAHTSNSGWTPPVAFTLWREGGSHHHHHH”, the “soluble on expression in E. coli” value is “soluble”.

For the sequence “MSLITVNTLQKMKAAGEKIAMLTAYESSFAALMDDAGVEMLLVGDSLGMAVQGRKSTLPVSLRDMCYHTECVARGAKNAMIVSDLPFGAYQQSKEQAFAAAAELMAAGAHMVKLEGGVWMAETTEFLQMRGIPVCAHIGLTPQSVFAFGGYKVQGRGGKAQALLNDAKAHDDAGAAVVLMECVLAELAKKVTETVSCPTIGIGAGADCDGQVLVMHDMLGIFPGKTAKFVKNFMQGHDSVQAAVRAYVAEVKAKTFPAAEHIFADEGGSHHHHHH”, the “soluble on expression in E. coli” value is “soluble”.

Turning to “MSLIVDREELEYDGSQLRRAFAHERYGIKGRAVVVFRGPMDVRTEYTADAEDVGSPIRGNDVLHLLVDDPTRADPLVAGLLQRLLVVVTKEVIEKELSTDLDRDGDDLLHDGRKLTVSVFKPAGPGSLAHLGINVTTEGVPVPASSLRDLGYRGDPLDLGRRVAVEFVREITDVELDLTKIRWEGHHHHHH”, the “soluble on expression in E. coli” value is on record as “soluble”.

Values taken from the DeepSol protein solubility set.
